Source: patent EP1441764B1

Target: C-RANKL protein (mouse RANKL fragment with N-terminal cysteine-containing linker GPGCGGG and hexahistidine tag) (mouse) (UniProt O35235)
Experiment: ELISA on plates coated with C-RANKL 10 ug/ml, serial dilutions of RANK-Fc, anti-Fc-HRP detection

Chain of UniProt O35235 (O35235 other isoform, or with tags, fused parts or gaps limits assumed, form in doubt): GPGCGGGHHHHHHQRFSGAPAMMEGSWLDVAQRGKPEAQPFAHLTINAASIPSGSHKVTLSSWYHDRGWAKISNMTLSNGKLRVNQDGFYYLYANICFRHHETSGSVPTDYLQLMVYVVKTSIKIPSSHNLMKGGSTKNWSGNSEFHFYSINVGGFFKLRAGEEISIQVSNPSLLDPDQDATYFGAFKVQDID

EC50: 1 to 3 nM
Substance: purified RANK-Fc fusion protein
